# Experimental data taken from patent publication US20150056222A1 (Regeneron, published 2015).
# Where a chain is given by its changes, count along the chain named. Numbers in names are those of the source.
# T1: hPRLR.mmh (soluble monomeric human PRLR) (human)
# T1 construct: soluble monomeric construct
# T1 chain: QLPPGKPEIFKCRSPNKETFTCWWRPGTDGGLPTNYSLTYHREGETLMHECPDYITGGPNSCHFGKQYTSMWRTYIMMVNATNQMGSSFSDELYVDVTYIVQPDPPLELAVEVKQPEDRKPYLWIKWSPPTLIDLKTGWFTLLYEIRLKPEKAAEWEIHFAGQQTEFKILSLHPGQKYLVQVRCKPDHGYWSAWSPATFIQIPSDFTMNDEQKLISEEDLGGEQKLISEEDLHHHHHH
# T2: hPRLR.mFc (soluble dimeric human PRLR) (human)
# T2 construct: dimeric construct
# T2 chain: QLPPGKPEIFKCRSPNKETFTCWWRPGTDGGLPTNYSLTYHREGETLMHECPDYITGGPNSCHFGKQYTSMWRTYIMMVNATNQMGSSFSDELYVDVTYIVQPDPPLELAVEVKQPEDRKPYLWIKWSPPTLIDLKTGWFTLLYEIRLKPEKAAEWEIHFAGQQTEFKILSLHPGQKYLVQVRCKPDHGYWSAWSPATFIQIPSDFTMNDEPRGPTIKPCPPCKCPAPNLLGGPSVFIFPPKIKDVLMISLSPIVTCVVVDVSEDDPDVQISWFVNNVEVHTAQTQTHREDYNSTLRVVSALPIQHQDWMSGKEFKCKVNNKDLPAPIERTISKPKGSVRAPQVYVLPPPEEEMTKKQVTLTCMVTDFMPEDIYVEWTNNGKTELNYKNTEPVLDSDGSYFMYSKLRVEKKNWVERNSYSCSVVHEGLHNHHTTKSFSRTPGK
# T3: mfPRLR.mmh (soluble monomeric macaca fascicularis PRLR) (macaca fascicularis)
# T3 construct: soluble monomeric construct; also called macaca fascicularis (mf) PRLR.mmh
# T3 chain: T1 chain with I76V, A110T, I125M, I158T, T207I
# T4: human prolactin receptor (PRLR) on cells (human, UniProt P16471 25-622)
# T4 sequence: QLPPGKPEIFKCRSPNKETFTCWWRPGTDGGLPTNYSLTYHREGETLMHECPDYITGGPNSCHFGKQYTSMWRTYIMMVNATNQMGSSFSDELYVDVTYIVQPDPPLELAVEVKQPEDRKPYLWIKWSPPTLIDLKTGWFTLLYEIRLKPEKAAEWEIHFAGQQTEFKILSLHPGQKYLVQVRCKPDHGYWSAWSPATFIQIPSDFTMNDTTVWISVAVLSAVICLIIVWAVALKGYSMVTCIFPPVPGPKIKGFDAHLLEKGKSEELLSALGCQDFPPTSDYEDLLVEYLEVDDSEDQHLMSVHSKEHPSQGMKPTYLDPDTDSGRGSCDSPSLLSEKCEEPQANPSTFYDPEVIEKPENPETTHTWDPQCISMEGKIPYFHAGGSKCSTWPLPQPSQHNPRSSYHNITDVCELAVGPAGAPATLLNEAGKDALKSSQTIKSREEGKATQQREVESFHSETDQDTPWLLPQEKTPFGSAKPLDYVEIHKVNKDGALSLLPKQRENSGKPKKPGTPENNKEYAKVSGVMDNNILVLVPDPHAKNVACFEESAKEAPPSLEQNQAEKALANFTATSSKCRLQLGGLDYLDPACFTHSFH
# T5: mouse PRLR on HEK293 cells (mouse, UniProt Q08501 20-608)
# T5 construct: whole, on cells; also called mPRLR; HEK293/mPRLR
# T5 sequence (looked up): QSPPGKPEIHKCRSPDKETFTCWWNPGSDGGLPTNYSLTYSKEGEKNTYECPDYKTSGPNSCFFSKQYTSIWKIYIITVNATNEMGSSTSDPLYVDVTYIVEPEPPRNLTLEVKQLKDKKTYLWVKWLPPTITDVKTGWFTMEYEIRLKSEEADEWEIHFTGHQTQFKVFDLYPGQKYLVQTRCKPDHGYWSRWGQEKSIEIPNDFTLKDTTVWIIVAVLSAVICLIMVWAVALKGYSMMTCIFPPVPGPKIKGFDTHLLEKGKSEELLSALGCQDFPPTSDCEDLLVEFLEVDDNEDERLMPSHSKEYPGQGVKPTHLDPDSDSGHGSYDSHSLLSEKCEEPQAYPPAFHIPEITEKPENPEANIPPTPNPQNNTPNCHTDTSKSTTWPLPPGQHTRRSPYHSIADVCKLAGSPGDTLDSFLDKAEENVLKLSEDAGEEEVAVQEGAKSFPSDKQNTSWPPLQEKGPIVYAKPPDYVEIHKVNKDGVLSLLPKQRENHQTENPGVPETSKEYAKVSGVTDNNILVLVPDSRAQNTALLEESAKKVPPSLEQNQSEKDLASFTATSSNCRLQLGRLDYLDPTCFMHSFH
# T6: monkey (macaca fascicularis) PRLR on HEK293 cells (macaca fascicularis, UniProt A0A2K5WXK1 25-619)
# T6 construct: also called mfPRLR; HEK293/mfPRLR
# T6 sequence: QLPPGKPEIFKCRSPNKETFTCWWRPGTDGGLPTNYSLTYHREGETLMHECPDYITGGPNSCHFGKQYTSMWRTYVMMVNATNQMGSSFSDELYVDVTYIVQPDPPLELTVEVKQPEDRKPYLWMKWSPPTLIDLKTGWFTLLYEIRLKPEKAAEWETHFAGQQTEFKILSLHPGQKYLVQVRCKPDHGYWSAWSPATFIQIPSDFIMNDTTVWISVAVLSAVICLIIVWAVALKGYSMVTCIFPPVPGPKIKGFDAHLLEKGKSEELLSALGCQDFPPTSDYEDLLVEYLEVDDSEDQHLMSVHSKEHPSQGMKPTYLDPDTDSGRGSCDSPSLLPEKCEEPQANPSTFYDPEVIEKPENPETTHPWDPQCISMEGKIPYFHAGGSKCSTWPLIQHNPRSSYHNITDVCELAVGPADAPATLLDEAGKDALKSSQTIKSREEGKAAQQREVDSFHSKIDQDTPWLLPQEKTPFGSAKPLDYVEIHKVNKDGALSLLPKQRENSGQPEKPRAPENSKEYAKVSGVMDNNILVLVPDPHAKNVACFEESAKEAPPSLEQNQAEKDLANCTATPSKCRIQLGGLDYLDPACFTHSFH
# B1: H1H6785P (antibody, human IgG1, V domains shown)
# VH: EVQLVESGGGLVQPGGSLRLSCAASGFTFSSYEMNWVRQAPGKGLEWISYISSRGGTIYYADSIKGRFTIYRDNARNSLYLQMNSLRAEDTAIYYCARLSGVDIFDIWGQGTMVTVSS
# VL: DIQMTQSPSSLSASVGDRVTITCRASQGISNYLAWYQQKPGKVPKLLIYFASTLQSGVPSRFSGGGSGTDFTLTISSLQPEDVATYYCQRYNSAPLTFGGGTKVEIK
# notes: human IgG1 Fc (H1H)
# B2: H1H6976N (antibody, human IgG1, V domains shown)
# VH: EVQLLESGGGFVQPGGSLRLSCAASGFTFSSYAMSWVRQAPGKGLEWVSIISSNGRYTYYADSVKGRFTISRDNSKNTLYLQMNSLRAEDTAVYYCATVTGDWFDPWGQGTLVTVSS
# VL: DIQLTQSPSFLSASVGDRVTITCWASQDIDISLAWYQQKPGKAPKLLIYAASTLQSGVPSKFSGSGSGTDFTLTISSLQPEDFSTYYCQQLNSYPITFGQGTRLDIK
# notes: also called H2M6976N
# B3: H1H6765P (antibody, human IgG1, V domains shown)
# VH: EVQLVESGGGVVRPGGSLRLSCVGSGFSFDDHGMNWVRQGPGKGLEWVSGFNWNGGSTNYAESVKGRFTISRDNARNSLFLQMNSLRAEDTALYYCVRGRSGWFNDAFDVWGPGTMVTVSS
# VL: EIVLTQSPGTLSLSPGERATLSCRASQTINSNYLAWYRQKPGQTPRLLIYGTSSRATGIPDRFSGSGSGTDFSLTISRLEPEDFAVFYCQQYAGLPTFGPGTKVDIK
# notes: human IgG1 Fc (H1H)
# B4: H1H6782P (antibody, human IgG1, V domains shown)
# VH: EVQLVESGGGLVQPGRSLRLSCAASGFTFDDYAMHWVRQAPGKGLEWVSGIIWNSGHIGYGDSVKGRFTISRDNAKKSLYLQMNSLRAEDTALYYCARDSGRYQSYFDYWGQGTLVTVSS
# VL: DIQMTQSPSTLSASVGDRVTITCRASHIISSWLAWYQQKPGKAPKVLIFKASSLESGVPSRFSGSGSGTEFTLTISSLQPDDFATYYCQQYNTYSRTFGQGTKVEIK
# notes: human IgG1 Fc (H1H)
# B5: H1H6793P (antibody, human IgG1, V domains shown)
# VH: EVQLVESGGGLVQPGGSLRLSCAASGFSFSIYAMSWFRQAPGKGLEWVSAINGRGDGTHYADSVKGRFTISRDNSKTTLYLQMSSLRAEDTAVYYCAKPVMSTNGFDIWGQGTMVTVSS
# VL: DIQMTQSPSTLSASVGDRVTITCRASQSISSWLAWYQLKPGKAPKLLIYKASNLESGVPSRFSGSGSGTEFTLTISSLQPDDFATYYCQQYNIYWTFGQGTKVEIK
# notes: human IgG1 Fc (H1H)
# B6: H1H6958N2 (antibody, human IgG1, V domains shown)
# VH: QVQLVESGGGVVQPGRSLRLSCGASGFTFRNYGMQWVRQGPGKGLEWVTLISFDGNDKYYADSVKGRFTISRDNSKNTLFLQMNSLRTEDTAVYYCARGGDFDYWGQGTLVTVSS
# VL: DIQMTQSPSSLSASVGDRVTITCRASQDIRKDLGWYQQKPGKAPKRLIYAASSLHSGVPSRFSGSGSGTEFTLTISSLQPEDFATYYCLQHNSYPMYTFGQGTKLEIK
# notes: also called H2M6958N2
# Target: T1, hPRLR.mmh (soluble monomeric human PRLR)
# Test: SPR, 37C, mAb capture
# Protocol: (§1) Measurements were conducted on a T200 Biacore instrument. Kinetic association (kₐ) and dissociation (kd) rate constants were determined by processing and fitting the data to a 1:1 binding model using Scrubber 2.0 curve fitting software. Binding dissociation equilibrium constants (KD) and dissociative half-lives (t_{1/2}) were calculated from the kinetic rate constants as: KD (M)=kd/kₐ; and […].
row,T½,Binder
1,24 min,B1
2,3.7 min,B2
3,32 min,B3
4,16 min,B4
5,11 min,B5
6,8.8 min,B6

# Target: T2, hPRLR.mFc (soluble dimeric human PRLR)
# Test: SPR, 37C, mAb capture
# Protocol: as §1
row,T½,Binder
1,99 min,B1
2,82.6 min,B2
3,112 min,B3
4,89 min,B4
5,81 min,B5
6,83.3 min,B6

# Target: T3, mfPRLR.mmh (soluble monomeric macaca …)
# Test: SPR, 37C, mAb capture
# Protocol: as §1
row,T½,Binder
1,26 min,B1
2,3.7 min,B2
3,215 min,B3
4,15 min,B4
5,11 min,B5
6,8.6 min,B6

# Target: T4, human prolactin receptor (PRLR) on cells
# Test: cell-based or functional assay
row,"% Internalization relative to Control I (alexa488 intensity in intracellular vesicles at 37 C, T47D cells)",Binder
1,169%,B1
2,170%,B2
3,186%,B3
4,179%,B4
5,180%,B5
6,169%,B6

# Target: T4, human prolactin receptor (PRLR) on cells
# Test: FACS, HEK293/hPRLR cells; note: test concentration or dose not given here
row,FACS Cell Binding (Fold Above Background),Binder
1,37 fold above background,B1
2,8 fold above background,B2
3,38 fold above background,B3
4,41 fold above background,B4
5,2 fold above background,B5
6,35 fold above background,B6

# Target: T5, mouse PRLR on HEK293 cells
# Test: FACS, HEK293/mPRLR cells; note: test concentration or dose not given here
row,FACS Cell Binding (Fold Above Background),Binder
1,2 fold above background,B1
2,1 fold above background,B2
3,1 fold above background,B3
4,4 fold above background,B4
5,2 fold above background,B5
6,1 fold above background,B6

# Target: T6, monkey (macaca fascicularis) PRLR on …
# Test: FACS, HEK293/mfPRLR cells; note: test concentration or dose not given here
row,FACS Cell Binding (Fold Above Background),Binder
1,26 fold above background,B1
2,29 fold above background,B2
3,27 fold above background,B3
4,32 fold above background,B4
5,32 fold above background,B5
6,30 fold above background,B6

# Target: T4, human prolactin receptor (PRLR) on cells
# Test: FACS, T47D cells (native PRLR); note: test concentration or dose not given here
row,FACS Cell Binding (Fold Above Background),Binder
1,40 fold above background,B1
2,37 fold above background,B2
3,40 fold above background,B3
4,43 fold above background,B4
5,43 fold above background,B5
6,37 fold above background,B6
